According to the supplement of paper PMC5998384:

Columns and labels:
HeLa Kyoto [1] = assay: solubility change mitosis vs G1/S (difference of NP-40 vs SDS log2 ratios) (log2 ratio difference); higher = more soluble in mitosis
HeLa Kyoto [2] = assay: melting temperature (median over replicates), in situ; higher = more thermally stable
HeLa Kyoto [3] = assay: solubility in G1/S (NP-40 vs SDS abundance) (log2 ratio); higher = more soluble; conditions: cell cycle stage: G1/S
HeLa Kyoto [4] = assay: thermal stability score vs G1/S (z-score of summed log2 fold changes over temperatures); higher = more thermally stable than in G1/S
[5] = cell cycle stage: early G1 (4.5 h after nocodazole release)
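Wherever melting temperature (median over replicates), in situ is given: HeLa Kyoto cells synchronized by double thymidine or nocodazole block, proteins quantified by TMT10plex mass spectrometry, three independent biological replicates.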
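Wherever solubility change mitosis vs G1/S (difference of NP-40 vs SDS log2 ratios) is given: synchronized HeLa Kyoto cells (double thymidine block for G1/S, nocodazole release for mitosis), protein amounts in NP-40 versus SDS lysates quantified by mass spectrometry, three biological replicates.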
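Wherever solubility in G1/S (NP-40 vs SDS abundance) is given: HeLa Kyoto cells arrested at G1/S by double thymidine block, proteins quantified by TMT10plex mass spectrometry in mild NP-40 versus SDS extracts, three biological replicates.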
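Wherever thermal stability score vs G1/S (z-score of summed log2 fold changes over temperatures) is given: synchronized HeLa Kyoto cells, proteins quantified by TMT10plex mass spectrometry, three biological replicates, mitosis taken 0.5 h after nocodazole release, G1/S directly after double thymidine block.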

| Sequence | solubility change mitosis (log2) (HeLa Kyoto [1]) | melting temperature (HeLa Kyoto [2]; cell cycle stage: G1/S) | melting temperature (HeLa Kyoto [2]; cell cycle stage: mitosis) | solubility in G1/S (log2) (HeLa Kyoto [3]) | thermal stability score (HeLa Kyoto [4]; [5]) | thermal stability score (HeLa Kyoto [4]; cell cycle stage: mitosis) |
| --- | --- | --- | --- | --- | --- | --- |
| MAGLTVRDPAVDRSLRSVFVGNIPYEATEEQLKDIFSEVGPVVSFRLVYDRETGKPKGYGFCEYQDQETALSAMRNLNGREFSGRALRVDNAASEKNKEELKSLGTGAPVIESPYGETISPEDAPESISKAVASLPPEQMFELMKQMKLCVQNSPQEARNMLLQNPQLAYALLQAQVVMRIVDPEIALKILHRQTNIPTLIAGNPQPVHGAGPGSGSNVSMNQQNPQAPQAQSLGGMHVNGAPPLMQASMQGGVPAPGQMPAAVTGPGPGSLAPGGGMQAQVGMPGSGPVSMERGQVPMQDPRAAMQRGSLPANVPTPRGLLGDAPNDPRGGTLLSVTGEVEPRGYLGPPHQGPPMHHVPGHESRGPPPHELRGGPLPEPRPLMAEPRGPMLDQRGPPLDGRGGRDPRGIDARGMEARAMEARGLDARGLEARAMEARAMEARAMEARAMEARAMEVRGMEARGMDTRGPVPGPRGPIPSGMQGPSPINMGAVVPQGSRQVPVMQGTGMQGASIQGGSQPGGFSPGQNQVTPQDHEKAALIMQVLQLTADQIAMLPPEQRQSILILKEQIQKSTGAP [CSTF2] | 0.172 | 53 °C | 53.2 °C | 0.323 | -0.643 | -0.392 |
| MAGNFDSEERSSWYWGRLSRQEAVALLQGQRHGVFLVRDSSTSPGDYVLSVSENSRVSHYIINSSGPRPPVPPSPAQPPPGVSPSRLRIGDQEFDSLPALLEFYKIHYLDTTTLIEPVSRSRQGSGVILRQEEAEYVRALFDFNGNDEEDLPFKKGDILRIRDKPEEQWWNAEDSEGKRGMIPVPYVEKYRPASASVSALIGGNQEGSHPQPLGGPEPGPYAQPSVNTPLPNLQNGPIYARVIQKRVPNAYDKTALALEVGELVKVTKINVSGQWEGECNGKRGHFPFTHVRLLDQQNPDEDFS [CRK] | -0.104 | 50.6 °C | 51.5 °C | 0.342 | -0.547 | -1.21 |
| MAGPELLLDSNIRLWVVLPIVIITFFVGMIRHYVSILLQSDKKLTQEQVSDSQVLIRSRVLRENGKYIPKQSFLTRKYYFNNPEDGFFKKTKRKVVPPSPMTDPTMLTDMMKGNVTNVLPMILIGGWINMTFSGFVTTKVPFPLTLRFKPMLQQGIELLTLDASWVSSASWYFLNVFGLRSIYSLILGQDNAADQSRMMQEQMTGAAMAMPADTNKAFKTEWEALELTDHQWALDDVEEELMAKDLHFEGMFKKELQTSIF [EMC3] | -0.25 | 54.1 °C | 53.7 °C | -0.174 | -0.437 | -0.599 |
| MAGPGPGPGDPDEQYDFLFKLVLVGDASVGKTCVVQRFKTGAFSERQGSTIGVDFTMKTLEIQGKRVKLQIWDTAGQERFRTITQSYYRSANGAILAYDITKRSSFLSVPHWIEDVRKYAGSNIVQLLIGNKSDLSELREVSLAEAQSLAEHYDILCAIETSAKDSSNVEEAFLRVATELIMRHGGPLFSEKSPDHIQLNSKDIGEGWGCGC [RAB43] | 0.296 | 55.1 °C | 54.6 °C | -0.224 | -0.0567 | 0.366 |
| MAGQGLPLHVATLLTGLLECLGFAGVLFGWPSLVFVFKNEDYFKDLCGPDAGPIGNATGQADCKAQDERFSLIFTLGSFMNNFMTFPTGYIFDRFKTTVARLIAIFFYTTATLIIAFTSAGSAVLLFLAMPMLTIGGILFLITNLQIGNLFGQHRSTIITLYNGAFDSSSAVFLIIKLLYEKGISLRASFIFISVCSTWHVARTFLLMPRGHIPYPLPPNYSYGLCPGNGTTKEEKETAEHENRELQSKEFLSAKEETPGAGQKQELRSFWSYAFSRRFAWHLVWLSVIQLWHYLFIGTLNSLLTNMAGGDMARVSTYTNAFAFTQFGVLCAPWNGLLMDRLKQKYQKEARKTGSSTLAVALCSTVPSLALTSLLCLGFALCASVPILPLQYLTFILQVISRSFLYGSNAAFLTLAFPSEHFGKLFGLVMALSAVVSLLQFPIFTLIKGSLQNDPFYVNVMFMLAILLTFFHPFLVYRECRTWKESPSAIA [SLC43A3] | -0.114 | 58.3 °C | 58.2 °C | 0.205 | -0.857 | -2.36 |
| MAGYLRVVRSLCRASGSRPAWAPAALTAPTSQEQPRRHYADKRIKVAKPVVEMDGDEMTRIIWQFIKEKLILPHVDIQLKYFDLGLPNRDQTDDQVTIDSALATQKYSVAVKCATITPDEARVEEFKLKKMWKSPNGTIRNILGGTVFREPIICKNIPRLVPGWTKPITIGRHAHGDQYKATDFVADRAGTFKMVFTPKDGSGVKEWEVYNFPAGGVGMGMYNTDESISGFAHSCFQYAIQKKWPLYMSTKNTILKAYDGRFKDIFQEIFDKHYKTDFDKNKIWYEHRLIDDMVAQVLKSSGGFVWACKNYDGDVQSDILAQGFGSLGLMTSVLVCPDGKTIEAEAAHGTVTRHYREHQKGRPTSTNPIASIFAWTRGLEHRGKLDGNQDLIRFAQMLEKVCVETVESGAMTKDLAGCIHGLSNVKLNEHFLNTTDFLDTIKSNLDRALGRQ [IDH2] | -0.113 | 53.7 °C | 54.1 °C | 0.137 | -0.161 | 0.659 |
| MAILFAVVARGTTILAKHAWCGGNFLEVTEQILAKIPSENNKLTYSHGNYLFHYICQDRIVYLCITDDDFERSRAFNFLNEIKKRFQTTYGSRAQTALPYAMNSEFSSVLAAQLKHHSENKGLDKVMETQAQVDELKGIMVRNIDLVAQRGERLELLIDKTENLVDSSVTFKTTSRNLARAMCMKNLKLTIIIIIVSIVFIYIIVSPLCGGFTWPSCVKK [VAMP7] | -0.283 | 54.4 °C | 53.1 °C | -0.0498 | 1.62 | 1.41 |
| MAKAKKVGARRKASGAPAGARGGPAKANSNPFEVKVNRQKFQILGRKTRHDVGLPGVSRARALRKRTQTLLKEYKERDKSNVFRDKRFGEYNSNMSPEEKMMKRFALEQQRHHEKKSIYNLNEDEELTHYGQSLADIEKHNDIVDSDSDAEDRGTLSAELTAAHFGGGGGLLHKKTQQEGEEREKPKSRKELIEELIAKSKQEKRERQAQREDALELTEKLDQDWKEIQTLLSHKTPKSENRDKKEKPKPDAYDMMVRELGFEMKAQPSNRMKTEAELAKEEQEHLRKLEAERLRRMLGKDEDENVKKPKHMSADDLNDGFVLDKDDRRLLSYKDGKMNVEEDVQEEQSKEASDPESNEEEGDSSGGEDTEESDSPDSHLDLESNVESEEENEKPAKEQRQTPGKGLISGKERAGKATRDELPYTFAAPESYEELRSLLLGRSMEEQLLVVERIQKCNHPSLAEGNKAKLEKLFGFLLEYVGDLATDDPPDLTVIDKLVVHLYHLCQMFPESASDAIKFVLRDAMHEMEEMIETKGRAALPGLDVLIYLKITGLLFPTSDFWHPVVTPALVCLSQLLTKCPILSLQDVVKGLFVCCLFLEYVALSQRFIPELINFLLGILYIATPNKASQGSTLVHPFRALGKNSELLVVSAREDVATWQQSSLSLRWASRLRAPTSTEANHIRLSCLAVGLALLKRCVLMYGSLPSFHAIMGPLQALLTDHLADCSHPQELQELCQSTLTEMESQKQLCRPLTCEKSKPVPLKLFTPRLVKVLEFGRKQGSSKEEQERKRLIHKHKREFKGAVREIRKDNQFLARMQLSEIMERDAERKRKVKQLFNSLATQEGEWKALKRKKFKK [NOP14] | 0.737 | 49.2 °C | 50.4 °C | -1.66 | 0.586 | 1.66 |
| MAKKTYDLLFKLLLIGDSGVGKTCVLFRFSDDAFNTTFISTIGIDFKIKTVELQGKKIKLQIWDTAGQERFHTITTSYYRGAMGIMLVYDITNGKSFENISKWLRNIDEHANEDVERMLLGNKCDMDDKRVVPKGKGEQIAREHGIRFFETSAKANINIEKAFLTLAEDILRKTPVKEPNSENVDISSGGGVTGWKSKCC [RAB10] | -0.146 | 57.5 °C | 56.5 °C | -0.153 | -0.265 | -1.23 |
| MAKPSHSSYVLQQLNNQREWGFLCDCCIAIDDIYFQAHKAVLAACSSYFRMFFMNHQHSTAQLNLSNMKISAECFDLILQFMYLGKIMTAPSSFEQFKVAMNYLQLYNVPDCLEDIQDADCSSSKCSSSASSKQNSKMIFGVRMYEDTVARNGNEANRWCAEPSSTVNTPHNREADEESLQLGNFPEPLFDVCKKSSVSKLSTPKERVSRRFGRSFTCDSCGFGFSCEKLLDEHVLTCTNRHLYQNTRSYHRIVDIRDGKDSNIKAEFGEKDSSKTFSAQTDKYRGDTSQAADDSASTTGSRKSSTVESEIASEEKSRAAERKRIIIKMEPEDIPTDELKDFNIIKVTDKDCNESTDNDELEDEPEEPFYRYYVEEDVSIKKSGRKTLKPRMSVSADERGGLENMRPPNNSSPVQEDAENASCELCGLTITEEDLSSHYLAKHIENICACGKCGQILVKGRQLQEHAQRCGEPQDLTMNGLGNTEEKMDLEENPDEQSEIRDMFVEMLDDFRDNHYQINSIQKKQLFKHSACPFRCPNCGQRFETENLVVEHMSSCLDQDMFKSAIMEENERDHRRKHFCNLCGKGFYQRCHLREHYTVHTKEKQFVCQTCGKQFLRERQLRLHNDMHKGMARYVCSICDQGNFRKHDHVRHMISHLSAGETICQVCFQIFPNNEQLEQHMDVHLYTCGICGAKFNLRKDMRSHYNAKHLKRT [ZBTB1] | -0.0122 | – | 51 °C | -0.369 | 2 | 3.65 |
| MAKTYDYLFKLLLIGDSGVGKTCVLFRFSEDAFNSTFISTIGIDFKIRTIELDGKRIKLQIWDTAGQERFRTITTAYYRGAMGIMLVYDITNEKSFDNIRNWIRNIEEHASADVEKMILGNKCDVNDKRQVSKERGEKLALDYGIKFMETSAKANINVENAFFTLARDIKAKMDKKLEGNSPQGSNQGVKITPDQQKRSSFFRCVLL [RAB8A] | -0.103 | 56.7 °C | 55.4 °C | -0.0996 | 2.59 | 1.39 |
| MALAARLWRLLPFRRGAAPGSRLPAGTSGSRGHCGPCRFRGFEVMGNPGTFKRGLLLSALSYLGFETYQVISQAAVVHATAKVEEILEQADYLYESGETEKLYQLLTQYKESEDAELLWRLARASRDVAQLSRTSEEEKKLLVYEALEYAKRALEKNESSFASHKWYAICLSDVGDYEGIKAKIANAYIIKEHFEKAIELNPKDATSIHLMGIWCYTFAEMPWYQRRIAKMLFATPPSSTYEKALGYFHRAEQVDPNFYSKNLLLLGKTYLKLHNKKLAAFWLMKAKDYPAHTEEDKQIQTEAAQLLTSFSEKN [RMDN1] | 0.0519 | 52 °C | 52.9 °C | 0.16 | -0.229 | -1.17 |
| MALASVLERPLPVNQRGFFGLGGRADLLDLGPGSLSDGLSLAAPGWGVPEEPGIEMLHGTTTLAFKFRHGVIVAADSRATAGAYIASQTVKKVIEINPYLLGTMAGGAADCSFWERLLARQCRIYELRNKERISVAAASKLLANMVYQYKGMGLSMGTMICGWDKRGPGLYYVDSEGNRISGATFSVGSGSVYAYGVMDRGYSYDLEVEQAYDLARRAIYQATYRDAYSGGAVNLYHVREDGWIRVSSDNVADLHEKYSGSTP [PSMB5] | -0.142 | 63.3 °C | 61.5 °C | -0.00915 | -2.01 | -3.9 |
| MALDFLAGCAGGVAGVLVGHPFDTVKVRLQVQSVEKPQYRGTLHCFKSIIKQESVLGLYKGLGSPLMGLTFINALVFGVQGNTLRALGHDSPLNQFLAGAAAGAIQCVICCPMELAKTRLQLQDAGPARTYKGSLDCLAQIYGHEGLRGVNRGMVSTLLRETPSFGVYFLTYDALTRALGCEPGDRLLVPKLLLAGGTSGIVSWLSTYPVDVVKSRLQADGLRGAPRYRGILDCVHQSYRAEGWRVFTRGLASTLLRAFPVNAATFATVTVVLTYARGEEAGPEGEAVPAAPAGPALAQPSSL [SLC25A29] | -0.0388 | 53.2 °C | 52.3 °C | 0.0296 | -0.402 | -0.997 |
